Results reported in PMC2690590 (2009).

B1: C-terminal fragment of the invariant chain (positions 118–208), devoid of CLIP (domain or fragment)
chain: LPMGALPQGPMQNATKYGNMTEDHVMHLLQNADPLKVYPPLKGSFPENLRHLKNTMETIDWKVFESWMHHWLLFEMSRHSLEQKPTDAPPK
B2: recombinant extracellular part of human invariant chain (positions 73–208) (domain or fragment)
chain: QQQGRLDKLTVTSQNLQLENLRMKLPKPPKPVSKMRMATPLLMQALPMGALPQGPMQNATKYGNMTEDHVMHLLQNADPLKVYPPLKGSFPENLRHLKNTMETIDWKVFESWMHHWLLFEMSRHSLEQKPTDAPPK

biological target: DR1: DRA*0101(1–191)/DRB1*0101(1–198) (human)

In order of falling IC50:
1. B1  1700 nM
2. B2  40 nM
3. LPKPPKPVSKMRMATPLLMQALPM [CLIP peptide fragment of the invariant chain (positions 97–120)]  40 nM
4. PKYVKQNTLKLAT [influenza hemagglutinin peptide HA306–318]  34 nM
